{"source": "patent US6649364", "key": {"[1]": {"biological_target": "α-actin purified from rabbit skeletal muscle, globular (G-actin) form (UniProt P68135)"}, "[2]": {"biological_target": "DNase I (Sigma, St. Louis, Mo.)", "experiment": "cell-based or functional assay"}}, "data": [{"substance": "DNase I (Sigma, St. Louis, Mo.)", "values": [{"measurement": "DNase I digestion of plasmid DNA (agarose gel)", "setting": "[1]", "value": "preincubation of DNase I with intact actin (1.5 µg) for 5 minutes markedly reduced its ability to digest the plasmid"}]}, {"substance": "actin cleaved for 90 minutes by ICE", "values": [{"measurement": "DNase I digestion of plasmid DNA (agarose gel): level of inhibition against diluted intact actin", "setting": "[2]", "value": 5, "unit": "fold"}, {"measurement": "DNase I digestion of plasmid DNA (agarose gel): reduction in DNase I inhibition", "setting": "[2]", "value": 80, "unit": "%"}]}]}
